From patent US20230213527A1, “COMPOSITIONS AND METHODS FOR POLYPEPTIDE ANALYSIS” (Quantum-Si Incorporated, priority 2021, published 2023)

Legend:
[1] = target: acetyl-lysine peptide of Example 6 (printed as RLK{acetyl}FIAYPDDD, SEQ ID NO: 826), state with N-terminal AK{acetyl}; test: single-molecule on-chip sequencing with PS691, PS610, PS961 and PS1165
[2] = target: lysine peptide of Example 6 (printed as …, SEQ ID NO: 825), state with N-terminal AK; test: as above

PS1165, sequence (Q13490 other isoform, or with tags, fused parts or gaps): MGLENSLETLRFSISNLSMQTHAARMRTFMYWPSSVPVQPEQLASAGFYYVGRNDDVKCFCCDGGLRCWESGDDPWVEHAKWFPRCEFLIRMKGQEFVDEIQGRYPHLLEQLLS

Work on PS1165 (from UniProt Q13490 250-361) yielded an RS mean PD [1] of 2.2 s and an RS mean PD [2] of 1.3 s.
